In US7867732B2, “Isolated polypeptide binding to a sugar chain, polynucleotide encoding the polypeptide and use of the polypeptide and polynucleotide” (National University of Corporation Hiroshima University, priority 2005, dated 2011):
In brackets after ≈: the same amount, converted by molar mass.

B1: BML-17: polypeptide (lectin) isolated from seaweed Bryopsis maxima; amino acid sequence of SEQ ID NO: 2 (protein, listed as Bryopsis maxima)
chain: VIYQDPVTSDMFAKIPMPGHRGPWYVCHSSGDWSRNEPVFGRCALDAKGMVEAYFPYGGKDIKWPSRWSAVLTTGVYWGKYNDWKQADCNGGQQVVDGGRGAVTVRMDGLSECKGWTTGKSSHNEVWFGCNGKEVGSWLSDTPASDVFPLCQEYGAAVKLVHMGRAFN
B2: ESA-2: Eucheuma serra-derived lectin (protein)
chain: GRYTVQNQWGGSSAPWNDAGLWILGSRGNQNVMAVDVNSSDGGANLNGTMTYSGEGPIGFKGARRGESNVYDVENQWGGSSAPWHAGGQFVIGSRSGQGVLAVNITSSDGGKTLTGTMTYEREGPIGFKGTQSGGDTYNVENQWGGSSAPWNKAGIWALGDRSGQAMIAMDVSSSDGGKTLEGTMQYKGEGPIGFRGKLSGANNYSVENQWGGSSAPWNAAGDWLIGDRHNQNITAVKVSSDNDGKNLDGTCTYEREGPIGFKGVATS

Legend:
[1] = system: chicken egg yolk antibody (chicken IgY antibody); experiment: Search for lectins that bind to chicken egg yolk antibody by SPR (Biacore 2000); format: binding; settings: chicken IgY immobilized as ligand
Excerpt: Assessment was made as to affinity of the different types of lectins and chicken egg yolk antibody (chicken IgY antibody). Briefly, using Biacore 2000 (BIACORE) that employs the principle of surface plasmon resonance method (hereinafter, “SPR method”), chicken egg yolk antibodies (chicken IgY antibodies) were immobilized as ligands on a sensor chip, and measurements were made according to manuals using each type of lectin solution as an analyte. The SPR technique allows for measurement of specific interactions between biomolecules both quickly and quantitatively, without labeling the biomolecules. According to this technique, the ligands are immobilized on a surface of the sensor chip, which is then supplemented with a solution of substance (analyte) that acts on the ligand. Slight changes in mass caused by the binding and dissociation of the molecules are then detected as changes in SPR signals. The mass change is represented by resonance unit (RU). One thousand RU is equivalent to a change in reflection angle of 0.1° caused by resonance, and it means that the analyte has bound to the ligand at 1 ng/mm^2. The surface of the sensor chip is coated with dextran, and the ligands are immobilized primarily via carboxyl groups that have been introduced into the dextran.
Note that, as permitted, the lectins tested as analytes were selected to have different sugar binding specificity. The chicken egg yolk antibody (chicken IgY antibodies) tested as ligands were obtained by purification from egg yolk, using Eggcellent Chicken IgY Purification Kit (Pierce Chem. Co. USA).

[2] = target: T1, asialotransferrin (Homo sapiens, UniProt P02787); experiment: SPR kinetics analysis of affinity between lectins and immobilized asialotransferrin; format: binding
T1 construct: purchased SIGMA
Description: (§1) Immobilization was performed according to manuals. Specifically, Taka-amylase A was immobilized using a surface thiol coupling method, and asialofetuin, bovine tyroglobulin, antibody, and BSA were immobilized using an amine coupling method. Each sample was immobilized in an amount within a range of 1000 RU to 1500 RU as adjusted by a manual injection method. Purity of the glycoprotein was confirmed by SDS-PAGE or MALDI-TOF-MS.
Affinity between each glycoprotein and each lectin was analyzed by SPR technique. Prior to analysis, preliminary analyses were made to assess analysis methods. […] Approximate KD values were calculated from a resulting sensorgram, and five or more steps of two-fold series dilutions of analyte (lectin) were prepared at target concentrations of 0.1 to 10 KD [M]. An analysis program was created using “Customized Application” according to the manual, and a subtraction function was used in which subtraction was made from flow cells that had glycoproteins immobilized thereon, from among four flow cells in the sensor chip. […] Under this analysis program, each analyte (lectin) solution was flown on the sensor chip at a flow rate of 30 μl/min for 3 minutes, and buffer was flown for 3 minutes to measure the amount of lectin that had bonded/dissociated. […]

[3] = system: chicken egg yolk antibody (chicken IgY antibody); experiment: SPR kinetics analysis of affinity between lectins and immobilized chicken egg yolk antibody; format: binding; settings: lectin as analyte; for Kd: read-out: Dissociation Constant KD
Description: as §1
Affinity between each glycoprotein and each lectin was analyzed by SPR technique. Prior to analysis, preliminary analyses were made to assess analysis methods. […] Approximate KD values were calculated from a resulting sensorgram, and five or more steps of two-fold series dilutions of analyte (lectin) were prepared at target concentrations of 0.1 to 10 KD [M]. An analysis program was created using “Customized Application” according to the manual, and a subtraction function was used in which subtraction was made from flow cells that had glycoproteins immobilized thereon, from among four flow cells in the sensor chip. […] Under this analysis program, each analyte (lectin) solution was flown on the sensor chip at a flow rate of 30 μl/min for 3 minutes, and buffer was flown for 3 minutes to measure the amount of lectin that had bonded/dissociated. Note that, an increase in RU during the time period from 10 seconds before addition of the analyte and to 10 seconds before the end of addition of analyte was given as the amount of bonding. A decrease in RU in the time period from 10 seconds after the addition of buffer to 10 seconds before the end of addition of buffer was given as the amount of dissociation.
Next, the sensor chip was washed with 0.5 M D-mannose, 10 mM glycine-HCl (pH 4.0), 50 mM HCl, and 10 mM NaOH for reproduction. Concerning the resulting sensorgram, the bonding phase and dissociation phase were fitted together with the curve to determine a bonding rate constant Ka, a dissociation rate constant kd, an affinity constant KA, and a dissociation constant KD.
Table 1 represents affinity constants of chicken egg yolk antibody and the various lectins. Table 1 represents bonding rate constant Ka (M^−1s^−1), dissociation rate constant Kd (s^−1), affinity constant KA (M^−1), and dissociation constant KD (M). The greater the affinity constant, the greater the affinity (stronger binding).

[4] = target: T2, bovine tyroglogulin (Bos taurus, UniProt P01267); experiment: Elutability of lectins bound to a bovine tyroglobulin-immobilized chip (SPR); format: binding, cattle; settings: 0.5 M D-mannose
T2 construct: purchased SIGMA
Excerpt: As in the case of chicken egg yolk antibody, a chip having immobilized thereon bovine tyroglogulin including the high-mannose-type sugar chain and the complex-type sugar chain was used to assess elutability of lectins that had bound to the chip. Note that, tyroglogulin was immobilized in a maximum amount (12,095 RU) on CM5 sensor chip, so as to make it easier to confirm specific binding and elution. Each solution of analyte (lectin) contained in HBS-EP (equilibriated) buffer (BIACORE) at a concentration of 100 μg/ml was flown at a flow rate of 5 μl/min until the amount of bonding reached equilibrium. After washing with HBS-EP buffer and the dissociation has reached equilibrium, 50 μl of 0.5 M D-mannose in the same buffer was injected. Based on the sensorgram, the amount of binding (RU) at the time when 50 μl (5 μg) of analyte (lectin) solution was injected was measured. Then, the amount of residual bonding (RU) of analyte (lectin) after buffer washing and elution with 50 μl of 0.5 M D-mannose was measured. The amount of residual bonding was given by percentage with respect to the maximum amount of bonding.
FIG. 3 represents the amount of residual bonding (%) of analyte (lectin) after the bonding, washing, and elution with 0.5 M D-mannose. FIG. 3 represents relative amounts of lectin that remain bonded to the chip after the dissociation with HBS-EP buffer, and relative amounts of lectin that remain after the elution with 0.5M D-mannose, when the amount of lectin binding to the bovine tyroglobulin immobilized chip exposed to the respective lectins is taken at 100%.

[5] = system: BML-17; experiment: Hemagglutination-inhibition test with BML-17 and trypsin-treated rabbit erythrocytes; format: cell-based, Bryopsis maxima
Description: (§2) Hemagglutinating activity was measured using a micro titer method. Twenty-five μl of serially two-fold dilutions of each purified fraction solution adjusted with saline was placed on a micro titer plate. Each diluted solution was supplemented with 25 μl of a 2% suspension of trypsin-treated rabbit erythrocytes and was gently stirred. The mixture was allowed to stand at room temperature for 1.5 hours and agglutination was observed. Agglutination was evaluated with naked eye. Agglutination of 50% or greater percentage of red blood cells was evaluated as positive. Agglutinating activity was given by agglutination titer, i.e., the protein concentration of maximum diluent showing agglutinating activity.
(§3) In this Example, trypsin-treated rabbit red blood cells (TRBC) were used as red blood cells. TRBC was prepared as follows. First, 2 ml of blood was collected from the ear of a rabbit kept in laboratory. The blood sample was washed 3 times with about 50 ml of saline, and was supplemented with 50 ml of saline to obtain a 2% rabbit blood cell suspension. The solution was supplemented with 1/10 volume of 0.5% trypsin in saline, and was allowed to stand at 37° C. for 1.5 hours. The trypsin-treated red blood cells were then washed 3 times with saline, and were supplemented with 45 ml of saline to obtain a 2% suspension of trypsin-treated rabbit erythrocytes (or blood cells) (TRBC).
Hemagglutination-inhibition test was performed according to the following procedure. First, each 25 μl of serially two-fold dilutions of sugar solution in saline was placed on a micro titer plate. The concentration of the original solutions of sugars examined was 100 mM for monosaccharides and oligosaccharides, and 2 mg/ml for glycoproteins. Each solution was mixed with 25 μl of BML-17 solution that had been adjusted to an agglutination titer of 4, and allowed to stand for 1.5 hours at room temperature after gentle stirring. Then, 25 μl of TRBC was added, and the mixture was allowed to stand for 2 hours at room temperature to observe hemagglutination inhibitory capability. The presence or absence of hemagglutination inhibitory capability was determined by naked eye. The test was positive when no hemagglutination occurred in about 100% of the red blood cells.
The hemagglutination inhibition test used D-glucose, D-galactose, D-mannose, N-acetyl-D-glucosamine, N-acetyl-D-galactosamine, D-xylose, L-fucose, fructose, lactose, and raffinose as monosaccharides and oligosaccharides. As glycoproteins, mucin (bovine submaxillary gland) and asialomucin, fetuin (type III, calf serum) and asialofetuin, transferrin (human) and asialotransferrin, α1-acid glycoprotein (human) and alialo-α1-acid glycoprotein, and yeast mannan were used.

[6] = system: BML-17; experiment: as above; format: cell-based, Bryopsis maxima; settings: gel filtration active fractions instead of purified BML-17
[7] = system: trypsin-treated rabbit red blood cell (TRBC); experiment: Temperature stability and pH stability of BML-17 by agglutinating activity; format: physicochemical; settings: 30-minute heat treatment
Description: as §2
as §3, with “The trypsin-treated red blood cells were then washed 3 times with saline, and were supplemented with 45 ml of saline to obtain a 2% suspension of trypsin-treated rabbit erythrocytes (or blood cells) (TRBC).” left out
Temperature stability and pH stability of BML-17 were evaluated, using agglutinating activity for trypsin-treated rabbit red blood cell (TRBC) as a measure.

T2 sequence (P01267 20-2769): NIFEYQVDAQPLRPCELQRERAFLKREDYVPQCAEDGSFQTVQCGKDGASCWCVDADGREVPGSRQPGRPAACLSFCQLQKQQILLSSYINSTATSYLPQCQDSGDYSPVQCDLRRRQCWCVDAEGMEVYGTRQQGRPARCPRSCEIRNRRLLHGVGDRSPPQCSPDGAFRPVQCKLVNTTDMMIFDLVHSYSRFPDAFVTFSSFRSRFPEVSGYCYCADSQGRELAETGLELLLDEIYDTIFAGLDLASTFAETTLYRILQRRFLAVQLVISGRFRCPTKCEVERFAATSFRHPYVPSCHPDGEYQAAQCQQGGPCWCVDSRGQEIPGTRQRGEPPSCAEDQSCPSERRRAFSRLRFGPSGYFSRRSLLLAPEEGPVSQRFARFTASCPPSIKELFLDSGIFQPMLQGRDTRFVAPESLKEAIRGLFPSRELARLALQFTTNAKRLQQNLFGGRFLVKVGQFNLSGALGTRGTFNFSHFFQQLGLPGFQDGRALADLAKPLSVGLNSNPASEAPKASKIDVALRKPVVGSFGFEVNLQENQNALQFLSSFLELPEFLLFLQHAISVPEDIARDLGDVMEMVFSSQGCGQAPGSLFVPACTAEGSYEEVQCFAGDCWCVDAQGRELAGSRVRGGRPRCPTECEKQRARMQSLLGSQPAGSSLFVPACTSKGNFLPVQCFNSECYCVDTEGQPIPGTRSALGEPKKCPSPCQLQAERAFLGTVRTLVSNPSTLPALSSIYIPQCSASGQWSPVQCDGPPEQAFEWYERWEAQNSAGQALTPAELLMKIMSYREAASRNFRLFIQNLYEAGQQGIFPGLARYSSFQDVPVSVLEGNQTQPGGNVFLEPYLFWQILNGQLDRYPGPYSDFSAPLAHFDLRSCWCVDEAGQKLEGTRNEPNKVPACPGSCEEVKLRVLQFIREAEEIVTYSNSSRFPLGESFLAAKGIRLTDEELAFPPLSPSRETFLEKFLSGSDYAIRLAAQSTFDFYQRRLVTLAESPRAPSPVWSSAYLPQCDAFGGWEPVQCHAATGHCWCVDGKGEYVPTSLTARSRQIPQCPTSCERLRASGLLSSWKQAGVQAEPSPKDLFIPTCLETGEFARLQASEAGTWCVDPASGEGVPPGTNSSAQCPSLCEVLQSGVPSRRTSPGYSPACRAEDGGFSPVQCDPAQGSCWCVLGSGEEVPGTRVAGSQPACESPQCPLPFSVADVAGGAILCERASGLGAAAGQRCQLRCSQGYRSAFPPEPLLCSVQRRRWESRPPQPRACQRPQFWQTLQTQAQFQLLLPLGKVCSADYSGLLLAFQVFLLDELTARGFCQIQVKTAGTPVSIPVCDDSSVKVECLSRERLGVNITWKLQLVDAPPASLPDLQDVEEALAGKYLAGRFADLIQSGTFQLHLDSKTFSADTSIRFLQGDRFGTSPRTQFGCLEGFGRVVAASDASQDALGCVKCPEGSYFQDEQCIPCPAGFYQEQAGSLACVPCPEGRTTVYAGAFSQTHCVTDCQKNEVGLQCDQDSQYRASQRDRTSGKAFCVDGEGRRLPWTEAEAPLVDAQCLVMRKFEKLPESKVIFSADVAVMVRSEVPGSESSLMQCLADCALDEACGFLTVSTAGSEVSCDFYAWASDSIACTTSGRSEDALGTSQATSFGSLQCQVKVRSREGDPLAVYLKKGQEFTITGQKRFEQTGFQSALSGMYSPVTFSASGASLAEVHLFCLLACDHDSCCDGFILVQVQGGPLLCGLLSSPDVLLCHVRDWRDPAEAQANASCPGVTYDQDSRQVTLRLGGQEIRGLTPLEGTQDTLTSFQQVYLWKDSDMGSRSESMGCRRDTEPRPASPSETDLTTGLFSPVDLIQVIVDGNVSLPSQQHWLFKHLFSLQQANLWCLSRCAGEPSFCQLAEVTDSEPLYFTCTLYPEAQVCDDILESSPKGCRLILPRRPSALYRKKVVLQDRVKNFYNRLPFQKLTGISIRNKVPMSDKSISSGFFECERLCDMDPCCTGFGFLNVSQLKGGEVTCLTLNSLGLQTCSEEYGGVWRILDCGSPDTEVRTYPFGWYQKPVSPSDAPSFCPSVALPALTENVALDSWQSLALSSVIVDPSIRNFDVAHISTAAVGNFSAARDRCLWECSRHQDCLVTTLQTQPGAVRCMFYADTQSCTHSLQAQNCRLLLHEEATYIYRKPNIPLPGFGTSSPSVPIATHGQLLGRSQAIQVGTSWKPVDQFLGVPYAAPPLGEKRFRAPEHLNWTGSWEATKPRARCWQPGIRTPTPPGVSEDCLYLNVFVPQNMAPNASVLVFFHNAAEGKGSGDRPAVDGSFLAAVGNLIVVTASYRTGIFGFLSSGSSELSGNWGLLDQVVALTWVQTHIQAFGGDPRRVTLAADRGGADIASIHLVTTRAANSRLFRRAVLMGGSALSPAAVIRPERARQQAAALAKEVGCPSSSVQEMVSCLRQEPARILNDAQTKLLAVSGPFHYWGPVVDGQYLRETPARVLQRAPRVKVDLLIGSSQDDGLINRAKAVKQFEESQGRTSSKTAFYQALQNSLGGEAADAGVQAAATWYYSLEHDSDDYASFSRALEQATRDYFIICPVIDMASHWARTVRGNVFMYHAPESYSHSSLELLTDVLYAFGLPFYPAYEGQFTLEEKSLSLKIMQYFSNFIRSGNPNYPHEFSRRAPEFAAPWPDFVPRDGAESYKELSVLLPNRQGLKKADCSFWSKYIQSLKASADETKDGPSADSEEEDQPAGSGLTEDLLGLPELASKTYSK
T1 sequence (P02787 20-698): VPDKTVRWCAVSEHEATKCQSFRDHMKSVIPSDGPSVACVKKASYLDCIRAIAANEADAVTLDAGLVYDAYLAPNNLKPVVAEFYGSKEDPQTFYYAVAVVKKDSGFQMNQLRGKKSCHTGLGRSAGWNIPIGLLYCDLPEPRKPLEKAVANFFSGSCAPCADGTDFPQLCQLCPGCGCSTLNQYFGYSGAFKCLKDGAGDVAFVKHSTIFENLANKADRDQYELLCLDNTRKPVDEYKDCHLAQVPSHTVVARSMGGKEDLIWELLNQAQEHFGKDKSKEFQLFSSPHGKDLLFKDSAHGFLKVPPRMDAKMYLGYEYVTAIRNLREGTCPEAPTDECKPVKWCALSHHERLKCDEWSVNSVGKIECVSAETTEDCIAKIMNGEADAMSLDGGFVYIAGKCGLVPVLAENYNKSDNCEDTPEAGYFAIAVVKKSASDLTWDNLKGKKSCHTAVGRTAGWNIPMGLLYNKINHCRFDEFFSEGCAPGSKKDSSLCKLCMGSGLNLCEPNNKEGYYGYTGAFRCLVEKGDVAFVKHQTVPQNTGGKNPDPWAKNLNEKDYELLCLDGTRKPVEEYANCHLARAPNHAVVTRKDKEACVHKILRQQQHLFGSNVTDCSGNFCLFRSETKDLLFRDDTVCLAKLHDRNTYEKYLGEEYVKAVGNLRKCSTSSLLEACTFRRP

Row | Molecule | Binding to chicken egg yolk antibody (in words) [1] | Affinity Constant KA [2] | Affinity Constant KA [3] [M⁻¹] | Binding Rate Constant ka [3] [M⁻¹ s⁻¹] | Dissociation Rate Constant kd [3] [s⁻¹] | Kd [3] [nM] | Elution of bound lectin with D-mannose [4] | Inhibition of agglutinating activity of BML-17 (in words) ([5]; TRBC) | Minimum inhibitory concentration ([5]; monosaccharides and oligosaccharides, inhibition of BML-17 (agglutination titer 4) agglutination of TRBC) [mM] | Inhibition of agglutinating activity of the active fractions obtained by gel filtration [6] | Temperature at which agglutinating activity attenuated [7] [°C]
1 | Con A: Canavallia ensiformis-derived lectin | binding to chicken egg yolk antibody (chicken IgY antibodies) occurs | 10^6 M^−1 | 1.87e+07 | 467 | 2.49e-05 | 53.4 | partially eluted with D-mannose |  |  |  | 
2 | O=C[C@@H](O)[C@@H](O)[C@H](O)[C@H](O)CO [D-Mannose] |  |  |  |  |  |  |  | inhibited | 12.5 (≈ 2250 µg/mL) | not inhibited at all | 
3 | B1 | binding to chicken egg yolk antibody (chicken IgY antibodies) occurs |  | 8.36e+07 | 490000 | 0.00586 | 12 | specifically and quantitatively eluted with D-mannose |  |  |  | ≥ 60
4 | B2 | binding to chicken egg yolk antibody (chicken IgY antibodies) occurs |  | 7.73e+07 | 352000 | 0.00455 |  | not eluted with D-mannose or any other eluents |  |  |  | 
